For the series, the target named is rabbit thrombomodulin (UniProt Q8HZ48).

This is an account of results in US20040120943.

For variant thrombin W215A/E217A (WE), the “activity toward protein C on addition of thrombomodulin” value is “the WE variant thrombin recovers almost its full activity toward protein C upon binding to thrombomodulin”.
